Experimental findings from US20240150445A1 are described below.

Positions count from the first letter of the chain named.

First the molecules themselves.
B1: DH270.IA4 (antibody, V domains shown)
VH: QVQLVQSGAEVKKPGASVKVSCKASGYTFTDYYIHWVRQAPGQGLEWMGWINPNTGRTNYAQKFQGRVTMTRDTSISTAYMELSRLRSDDTAVYYCARGGWIGLYYDSSGYPNFDYWGQGTLVTVSS
VL: QSALTQPASVSGSPGQSITISCTGTSYDVGSYNLVSWYQQHPGKAPKLMIYEVSKRPSGVSNRFSGSKSGNTASLTISGLQAEDEADYYCCSYAGSSTVIFGGGTKLTVL
B2: DH270.3 (antibody, V domains shown)
VH: QVQLVQSGAEMKNPGASVKVSCAASGYTFTDFYIHWVRLAPGQGLEWMGWMNPKTGRTNNAQNFQGRVIMTRDTSIGTAYMELRRLTSDDTAVYYCVTGGWISPYYDSSYYPNFDHWGQGTLVTVSS
VL: QSALTQPASVSGSPGQSITISCTGTSYDVGKFDLVSWYQQHPGKAPKYMIYEVNKWPSGVSHRFSGSKSGNTASLTISGLQAEDEADYYCCSFGGSATVVCGGGTKVTVL
B3: DH270.6 (antibody, V domains shown)
VH: QVQLVQSGAQMKNPGASVKVSCAPSGYTFTDFYIHWLRQAPGQGLQWMGWMNPQTGRTNTARNFQGRVIMTRDTSIGTAYMELRSLTSDDTAIYYCTTGGWISLYYDSSYYPNFDHWGQGTLLTVSS
VL: B2 VL with Q1T, A3L, S26K, K31S, F32H, H41Y, A45V, W56R, H62N, Q81R
B4: DH270.4 (antibody, V domains shown)
VH: B2 VH with Q1E, T28G, Q43H, E46Q, N63D, M70L, V123I
VL: B2 VL with G30A, Y38F
B5: DH270.5 (antibody, V domains shown)
VH: B2 VH with M11V, A24P, M48L, N60Q, A61G, R85S, G100A, P104D
VL: B2 VL with Q1L, S2P, A3V, S26I, Q40H, M49L, N54K, A82V, T98A
B6: DH270.1 (antibody, V domains shown)
VH: B1 VH with V11M, T69I, R87T, R98T
VL: B1 VL with L48Y, S54N
B7: DH270.2 (antibody, V domains shown)
VH: QVQLVQSGAEMKKPGASVRVSCKASGYTFTDYYIHWVRQAPGQGPEWMGWINPSTGRTNSPQKFQGRVIMTRDTSISTAYMDLNRLTSDDTAMYYCTTGGWIGLYSDTSGYPNFDYWGQGTLVTVSS
VL: B1 VL with S26N, A45V, L48Y, M49I, S54N, T98I, V99I, I100F, L110I

For the first assay, the target named is Man9-V3 glycopeptide. Nature of the assay: biolayer interferometry, biotinylated Man9-V3 on streptavidin sensors, antibody in solution; inset curves (100, 50, 25 µg/mL) after subtraction of the palivizumab signal.
Take B1: the dissociation constant Kd is above 10000 nM.

In the next assay the target is Man9-V3 glycopeptide. The assay can be described thus: biolayer interferometry, biotinylated Man9-V3 on streptavidin sensors, antibody in solution, global fit to the bivalent avidity model.
The molecule B2 returned an off-rate (koff) of 0.000778 s⁻¹ and a kon of 4000 M⁻¹ s⁻¹.

In turn, B3 showed a koff of 0.00037 s⁻¹ and a kon of 1970 M⁻¹ s⁻¹.

Turning to B4, the koff amounted to 0.00052 s⁻¹ and the kon was determined as 1500 M⁻¹ s⁻¹.

B5 showed a koff of 0.00091 s⁻¹ and a kon of 3300 M⁻¹ s⁻¹.

In turn, B6 returned a koff of 0.00051 s⁻¹ and a kon of 1540 M⁻¹ s⁻¹.

As for B7, the koff was found to be 0.0081 s⁻¹ and the kon is 1710 M⁻¹ s⁻¹.

Another assay addresses Man9-V3 glycopeptide. Nature of the assay: biolayer interferometry, biotinylated peptide on streptavidin sensors.
In the case of B3, the Kd is 188 nM.

B1: the dissociation constant Kd was above 10000 nM.

Turning to B6, the Kd is 331 nM. This lies in the sub-micromolar range.
